Reference: patent US12679878B2, “CRF2 receptor agonists and their use in therapy” (SANOFI, priority 2020, dated 2026)
Starred links: 1 amine or outer side, 2 acyl side, 3 side chain; linkers in the order of their positions; H or OH if unused. Non-standard residues stand in square brackets, D forms with d. Groups on a side chain read outwards from the residue. No end group written: not given here. *: point of attachment. C18 diacid = O=C(O)CCCCCCCCCCCCCCCCC(=O)*; γGlu = O=C(O)[C@H](CCC(=O)[*:2])N[*:1]; AEEA = NCCOCCOCC(=O)O; Aib = CC(C)(N)C(=O)O

B1: peptide of SEQ ID NO: 139 (peptide)
peptide: IVLSLD[dV]PIKLK([AEEA-AEEA-γGlu-C18 diacid])QILLKQERQKKQRQQAEKNKQILAQV-NH2
modifications: N-terminus assumed
SMILES: CC[C@H](C)[C@H](N)C(=O)N[C@H](C(=O)N[C@@H](CC(C)C)C(=O)N[C@@H](CO)C(=O)N[C@@H](CC(C)C)C(=O)N[C@@H](CC(=O)O)C(=O)N[C@@H](C(=O)N1CCC[C@H]1C(=O)N[C@H](C(=O)N[C@@H](CCCCN)C(=O)N[C@@H](CC(C)C)C(=O)N[C@@H](CCCCNC(=O)COCCOCCNC(=O)COCCOCCNC(=O)CC[C@H](NC(=O)CCCCCCCCCCCCCCCCC(=O)O)C(=O)O)C(=O)N[C@@H](CCC(N)=O)C(=O)N[C@H](C(=O)N[C@@H](CC(C)C)C(=O)N[C@@H](CC(C)C)C(=O)N[C@@H](CCCCN)C(=O)N[C@@H](CCC(N)=O)C(=O)N[C@@H](CCC(=O)O)C(=O)N[C@@H](CCCNC(=N)N)C(=O)N[C@@H](CCC(N)=O)C(=O)N[C@@H](CCCCN)C(=O)N[C@@H](CCCCN)C(=O)N[C@@H](CCC(N)=O)C(=O)N[C@@H](CCCNC(=N)N)C(=O)N[C@@H](CCC(N)=O)C(=O)N[C@@H](CCC(N)=O)C(=O)N[C@@H](C)C(=O)N[C@@H](CCC(=O)O)C(=O)N[C@@H](CCCCN)C(=O)N[C@@H](CC(N)=O)C(=O)N[C@@H](CCCCN)C(=O)N[C@@H](CCC(N)=O)C(=O)N[C@H](C(=O)N[C@@H](CC(C)C)C(=O)N[C@@H](C)C(=O)N[C@@H](CCC(N)=O)C(=O)N[C@H](C(N)=O)C(C)C)[C@@H](C)CC)[C@@H](C)CC)[C@@H](C)CC)C(C)C)C(C)C
B2: peptide of SEQ ID NO: 147 (peptide)
peptide: IVLSLD[dV]PIGLK([AEEA-AEEA-γGlu-C18 diacid])QILLKQERQKK[Aib]REQAETNKQILAQV-NH2
modifications: N-terminus assumed
SMILES: CC[C@H](C)[C@H](N)C(=O)N[C@H](C(=O)N[C@@H](CC(C)C)C(=O)N[C@@H](CO)C(=O)N[C@@H](CC(C)C)C(=O)N[C@@H](CC(=O)O)C(=O)N[C@@H](C(=O)N1CCC[C@H]1C(=O)N[C@H](C(=O)NCC(=O)N[C@@H](CC(C)C)C(=O)N[C@@H](CCCCNC(=O)COCCOCCNC(=O)COCCOCCNC(=O)CC[C@H](NC(=O)CCCCCCCCCCCCCCCCC(=O)O)C(=O)O)C(=O)N[C@@H](CCC(N)=O)C(=O)N[C@H](C(=O)N[C@@H](CC(C)C)C(=O)N[C@@H](CC(C)C)C(=O)N[C@@H](CCCCN)C(=O)N[C@@H](CCC(N)=O)C(=O)N[C@@H](CCC(=O)O)C(=O)N[C@@H](CCCNC(=N)N)C(=O)N[C@@H](CCC(N)=O)C(=O)N[C@@H](CCCCN)C(=O)N[C@@H](CCCCN)C(=O)NC(C)(C)C(=O)N[C@@H](CCCNC(=N)N)C(=O)N[C@@H](CCC(=O)O)C(=O)N[C@@H](CCC(N)=O)C(=O)N[C@@H](C)C(=O)N[C@@H](CCC(=O)O)C(=O)N[C@H](C(=O)N[C@@H](CC(N)=O)C(=O)N[C@@H](CCCCN)C(=O)N[C@@H](CCC(N)=O)C(=O)N[C@H](C(=O)N[C@@H](CC(C)C)C(=O)N[C@@H](C)C(=O)N[C@@H](CCC(N)=O)C(=O)N[C@H](C(N)=O)C(C)C)[C@@H](C)CC)[C@@H](C)O)[C@@H](C)CC)[C@@H](C)CC)C(C)C)C(C)C
B3: peptide of SEQ ID NO: 138 (peptide)
peptide: IVLSLD[dV]PIKLK([AEEA-AEEA-γGlu-C18 diacid])QILLKQERQKKQREKAEKNKQILAQV-NH2
modifications: N-terminus assumed
SMILES: CC[C@H](C)[C@H](N)C(=O)N[C@H](C(=O)N[C@@H](CC(C)C)C(=O)N[C@@H](CO)C(=O)N[C@@H](CC(C)C)C(=O)N[C@@H](CC(=O)O)C(=O)N[C@@H](C(=O)N1CCC[C@H]1C(=O)N[C@H](C(=O)N[C@@H](CCCCN)C(=O)N[C@@H](CC(C)C)C(=O)N[C@@H](CCCCNC(=O)COCCOCCNC(=O)COCCOCCNC(=O)CC[C@H](NC(=O)CCCCCCCCCCCCCCCCC(=O)O)C(=O)O)C(=O)N[C@@H](CCC(N)=O)C(=O)N[C@H](C(=O)N[C@@H](CC(C)C)C(=O)N[C@@H](CC(C)C)C(=O)N[C@@H](CCCCN)C(=O)N[C@@H](CCC(N)=O)C(=O)N[C@@H](CCC(=O)O)C(=O)N[C@@H](CCCNC(=N)N)C(=O)N[C@@H](CCC(N)=O)C(=O)N[C@@H](CCCCN)C(=O)N[C@@H](CCCCN)C(=O)N[C@@H](CCC(N)=O)C(=O)N[C@@H](CCCNC(=N)N)C(=O)N[C@@H](CCC(=O)O)C(=O)N[C@@H](CCCCN)C(=O)N[C@@H](C)C(=O)N[C@@H](CCC(=O)O)C(=O)N[C@@H](CCCCN)C(=O)N[C@@H](CC(N)=O)C(=O)N[C@@H](CCCCN)C(=O)N[C@@H](CCC(N)=O)C(=O)N[C@H](C(=O)N[C@@H](CC(C)C)C(=O)N[C@@H](C)C(=O)N[C@@H](CCC(N)=O)C(=O)N[C@H](C(N)=O)C(C)C)[C@@H](C)CC)[C@@H](C)CC)[C@@H](C)CC)C(C)C)C(C)C
B4: peptide of SEQ ID NO: 151 (peptide)
peptide: IVLSLD[dV]PIGLK([AEEA-AEEA-γGlu-C18 diacid])QILLKQERQKK[Aib]REQAEKNKRILERV-NH2
modifications: N-terminus assumed
SMILES: CC[C@H](C)[C@H](N)C(=O)N[C@H](C(=O)N[C@@H](CC(C)C)C(=O)N[C@@H](CO)C(=O)N[C@@H](CC(C)C)C(=O)N[C@@H](CC(=O)O)C(=O)N[C@@H](C(=O)N1CCC[C@H]1C(=O)N[C@H](C(=O)NCC(=O)N[C@@H](CC(C)C)C(=O)N[C@@H](CCCCNC(=O)COCCOCCNC(=O)COCCOCCNC(=O)CC[C@H](NC(=O)CCCCCCCCCCCCCCCCC(=O)O)C(=O)O)C(=O)N[C@@H](CCC(N)=O)C(=O)N[C@H](C(=O)N[C@@H](CC(C)C)C(=O)N[C@@H](CC(C)C)C(=O)N[C@@H](CCCCN)C(=O)N[C@@H](CCC(N)=O)C(=O)N[C@@H](CCC(=O)O)C(=O)N[C@@H](CCCNC(=N)N)C(=O)N[C@@H](CCC(N)=O)C(=O)N[C@@H](CCCCN)C(=O)N[C@@H](CCCCN)C(=O)NC(C)(C)C(=O)N[C@@H](CCCNC(=N)N)C(=O)N[C@@H](CCC(=O)O)C(=O)N[C@@H](CCC(N)=O)C(=O)N[C@@H](C)C(=O)N[C@@H](CCC(=O)O)C(=O)N[C@@H](CCCCN)C(=O)N[C@@H](CC(N)=O)C(=O)N[C@@H](CCCCN)C(=O)N[C@@H](CCCNC(=N)N)C(=O)N[C@H](C(=O)N[C@@H](CC(C)C)C(=O)N[C@@H](CCC(=O)O)C(=O)N[C@@H](CCCNC(=N)N)C(=O)N[C@H](C(N)=O)C(C)C)[C@@H](C)CC)[C@@H](C)CC)[C@@H](C)CC)C(C)C)C(C)C

Experiments:
Experiment in all cases: cell-based or functional assay
rat CRF2R α receptor = rat CRF2R α receptor (rat, UniProt P47866 20-411)
[1] = biological target: T1, anti-target CRF1R receptor (UniProt P34998 24-415, limits assumed)
T1 sequence (looked up): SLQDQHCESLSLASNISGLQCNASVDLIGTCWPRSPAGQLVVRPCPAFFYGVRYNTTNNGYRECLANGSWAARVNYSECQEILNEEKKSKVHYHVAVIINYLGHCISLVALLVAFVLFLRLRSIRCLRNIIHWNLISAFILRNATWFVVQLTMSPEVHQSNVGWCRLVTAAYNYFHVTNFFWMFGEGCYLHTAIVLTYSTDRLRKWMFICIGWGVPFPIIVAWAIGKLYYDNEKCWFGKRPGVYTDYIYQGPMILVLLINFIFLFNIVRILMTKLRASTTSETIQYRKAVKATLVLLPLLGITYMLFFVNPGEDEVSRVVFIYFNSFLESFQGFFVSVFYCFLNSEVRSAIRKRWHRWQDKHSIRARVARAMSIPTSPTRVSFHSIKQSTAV

[2] = biological target: T2, endogenous human CRF2 (NCI-H82 cells) (human, UniProt Q13324 20-411)
T2 sequence (looked up): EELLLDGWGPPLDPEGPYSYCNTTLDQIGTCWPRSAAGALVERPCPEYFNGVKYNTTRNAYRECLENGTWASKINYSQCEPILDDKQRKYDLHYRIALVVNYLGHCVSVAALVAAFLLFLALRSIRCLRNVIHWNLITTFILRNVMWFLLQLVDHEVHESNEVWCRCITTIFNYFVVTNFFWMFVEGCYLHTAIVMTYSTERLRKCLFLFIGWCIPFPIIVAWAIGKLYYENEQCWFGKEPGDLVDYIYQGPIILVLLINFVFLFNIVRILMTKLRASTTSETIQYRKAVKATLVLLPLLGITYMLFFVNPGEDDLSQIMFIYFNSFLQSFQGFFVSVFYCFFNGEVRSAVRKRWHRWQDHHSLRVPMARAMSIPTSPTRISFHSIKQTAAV

Binder	EC50 [nM], 0% HSA (cAMP, A7R5 cells) (rat CRF2R α receptor) [nM]	EC50[nM] 0% HSA (cAMP, CRF1R-overexpression CHO cells) [1] [nM]	Emax (%) (cAMP, CRF1R-overexpression CHO cells) [1]	EC50 [nM] (cAMP, NCI-H82 cells) [2]
B1	0.1	> 1000	37.6	18
B2	2.53	> 1000	4.54	13
B3	0.26	> 1000	4.38	8.4
B4	0.49	> 1000	9.07	7.4
